# Data reported in paper doi:10.1101/2024.08.19.608659.
# Target: hATP5A1 pre-protein (F1-ATP synthase subunit alpha precursor) (Homo sapiens, UniProt P25705)
# Assay: EMSA
binder,measurement,value
CUUUCCGCUCGGCUGUUUUCCUGCGCAGGAGCCGCA (ssRNA) [RPL13 RNA ligand],binding result,binds
